Source: paper PMC4068993, “Chlamydia pneumoniae CopD Translocator Protein Plays a Critical Role in Type III Secretion (T3S) and Infection” (PLoS ONE, 2014)
“And” between values parts separate entries of the source, which are not always exact repeats. Identical values can stand only once.

What was measured:
[1] = biological target: Full length His-CopD (Chlamydia pneumoniae CWL029) (UniProt Q9Z798); assay: SEC; co-expressed and Ni-NTA purified His-CopD and LcrH_1-S-tag (300 µL, 4.5 mg/mL), Superdex S200 10/300 GL, PBS + 0.03% LDAO, 0.5 mL/min; fractions blotted with anti-His and anti-S-tag; sizes from column standards
[2] = biological target: the molecule itself; assay: as above

Question: Which stoichiometry N (LcrH 1 per CopD) [1] does the source give for LcrH_1-S-tag (natural protein) here?
Answer: 1

B1: Full length His-CopD (natural protein)
chain: MTSGVSGSSSQDPTLAAQLAQSSQKAGNAQSGHDTKNVTKQGAQAEVAAGGFEDLIQDASAQSTGKKEATSSTTKSSKGEKSEKSGKSKSSTSVASASETATAQAVQGPKGLRQNNYDSPSLPTPEAQTINGIVLKKGMGTLALLGLVMTLMANAAGESWKASFQSQNQAIRSQVESAPAIGEAIKRQANHQASATEAQAKQSLISGIVNIVGFTVSVGAGIFSAAKGATSALKSASFAKETGASAAGGAASKALTSASSSVQQTMASTAKAATTAASSAGSAATKAAANLTDDMAAAASKMASDGASKASGGLFGEVLNKPNWSEKVSRGMNVVKTQGARVASFAGNALSSSMQMSQLMHGLTAAVEGLSAGQTGIEVAHHQRLAGQAEAQAEVLKQMSSVYGQQAGQAGQLQEQAMQSFNTALQTLQNIADSQTQTTSAIFN
notes: CopD (Cpn0808), Chlamydia pneumoniae CWL029, 444 amino acids (44.5 kDa); Eluted from SEC as decamer, tetramer and monomer; also called Cpn0808; source: E. coli Rosetta pLysS, co-expressed with LcrH_1-S-tag (pET-DUET), purified (Ni-NTA); not shown: 6×His, N-terminal, kept
Question: B1 was tested. Which “stoichiometry N” value [2] did it give?
Answer: 10 and 4
